Test results: article PMC8763920, “Unprotected peptide macrocyclization and stapling via a fluorine-thiol displacement reaction” (Nature Communications, 2022)
*1 amine or outer side, *2 acyl side, *3 side chain or, on linkers, in order; H or OH if unused. Where a SMILES comes first, the peptide text is derived from it. Bridges are numbered along the chain shown (N, C = ends). [ ]: non-standard residue; d: D form. Benzene(1,3-(CH2SCH2CO)2) = O=C(CSCc1cccc(CSCC(=O)[*:2])c1)[*:1]; X3 = O=C(CSCCCCCCCCSCC(=O)[*:2])[*:1]; X2 = O=C(CSCCCCCCCSCC(=O)[*:2])[*:1]; X1 = O=C(CSCCCCCCSCC(=O)[*:2])[*:1]; X4 = O=C(CSCCCCCSCC(=O)[*:2])[*:1]; S5 = C=CCCC[C@](C)(N)C(=O)O; dDap = NC[C@@H](N)C(=O)O; Dap = NC[C@H](N)C(=O)O

Key:
circular dichroism = settings: water; pH ns; 25 °C; 70 uM
[1] = test system: β-catenin mediated transcription; experiment: TOPFlash luciferase reporter assay; type: cell-based; settings: DLD-1 cells, 15 μM peptide, 24 h
Procedure: For evaluation of Axin peptide analogues, DLD-1 cells were cultured in 96-well flat bottom plates up to 70–80% confluency and were transfected with 200 ng M50 TOPFlash plasmid (a gift from Professor Raymond Habas, Temple Biology) and 50 ng pRL-TK plasmid (Promega). 12 h after transfection, cells were treated with DMSO vehicle or 15 μM of Axin peptide analogues for another 24 h. Luciferase activity was measured using the Dual-Glo luciferase assay kit (Promega) on a Biotek Synergy H1 plate reader using the Gen5 software. Data were processed as firefly: Renilla luciferase ratio for each control or treatment group, and were further normalized against the vehicle control group (100%) as the Relative Activities.

HEK293 cells = experiment: 5-day growth of HEK293 control cells; type: cell-based; settings: 5 days, CellTiter Glo, up to 16 µM
Procedure: (§1) For growth inhibition by Axin peptides, DLD-1 cells were cultured and maintained as mentioned before. Right before the assay, cells were resuspended in fresh RPMI media supplemented with 10% FBS, 100 IU/mL penicillin, and 100 µg/mL streptomycin, and plated onto 96-well white flat-bottom plates at 1000 cells per well (90 µL media/well). After overnight incubation, peptide samples were serially diluted as 10× stock in PBS buffer (10% DMSO), and were added to the plated cells at 10 µL stock solution/well in triplicate to make final treatment concentrations of 0, 0.0625, 0.125, 0.25, 0.5, 1, 2, 4, 8, 16 µM. […] The samples on the plates were incubated at 37 °C, 5% CO2 for 5 days, and the cell viability was evaluated by CellTiter Glo (Promega). The luminescence signals were recorded by the H1 synergy plate reader (Biotek) using the Gen5 software, and were normalized against the control groups (100%) for which cells were only treated with the vehicle (PBS/1% DMSO). Control HEK293 cells were cultured in DMEM media supplemented with 10% FBS, 1% penicillin/streptomycin at 37 °C, 5% CO2, then incubated with peptide samples and measured for viability in the same manner as mentioned above. […] After 24 h of incubation, the cell viabilities were measured and normalized against the vehicle control groups the same as mentioned above.

DLD-1 cells [2] = experiment: 5-day growth inhibition of DLD-1 cancer cells; type: cell-based; settings: CellTiter Glo
Procedure: For growth inhibition by Axin peptides, DLD-1 cells were cultured and maintained as mentioned before. Right before the assay, cells were resuspended in fresh RPMI media supplemented with 10% FBS, 100 IU/mL penicillin, and 100 µg/mL streptomycin, and plated onto 96-well white flat-bottom plates at 1000 cells per well (90 µL media/well). After overnight incubation, peptide samples were serially diluted as 10× stock in PBS buffer (10% DMSO), and were added to the plated cells at 10 µL stock solution/well in triplicate to make final treatment concentrations of 0, 0.0625, 0.125, 0.25, 0.5, 1, 2, 4, 8, 16 µM. The wells on the edges of plates were filled with PBS buffer to avoid unwanted evaporation of samples. The samples on the plates were incubated at 37 °C, 5% CO2 for 5 days, and the cell viability was evaluated by CellTiter Glo (Promega). The luminescence signals were recorded by the H1 synergy plate reader (Biotek) using the Gen5 software, and were normalized against the control groups (100%) for which cells were only treated with the vehicle (PBS/1% DMSO). Control HEK293 cells were cultured in DMEM media supplemented with 10% FBS, 1% penicillin/streptomycin at 37 °C, 5% CO2, then incubated with peptide samples and measured for viability in the same manner as mentioned above. For Axin peptide analogues’ time-dependent cytotoxicity, peptide analogues were mixed with cells (1000 cells per well) at a final concentration of 0, 5, 10, and 15 µM. The cell viabilities were meaured via CellTiter Glo after incubation of 1 day, 2 days, and 4 days, respectively. […] After 24 h of incubation, the cell viabilities were measured and normalized against the vehicle control groups the same as mentioned above.

DLD-1 cells [3] = experiment: Cell viability assay for imaging studies, Axin analogues; type: cell-based; settings: 10 µM, 12 h incubation, CellTiter-Glo
Procedure: For Jurkat cells, after imaging studies with SAHBA analogues (5 µM, 4 h of incubation), viabilities were measured by mixing with the CellTiter-Glo reagent and the chemiluminescence signals were recorded and processed the same as metioned above. Similarly, confocal imaging of DLD-1 cells for the penetration pathway studies were followed by viability measurements. Cells treated with vehicle groups were also analysed and counted as the 100% control.

DLD-1 cells [4] = experiment: Time-dependent cytotoxicity/growth inhibition of Axin peptide analogues; type: cell-based; settings: 0, 5, 10, 15 µM; after 48 h of incubation; CellTiter Glo
Procedure: as §1

Structure (SMILES) | helicity (circular dichroism) [%] | further results
CC[C@H](C)[C@@H]1NC(=O)[C@@](C)(NC(=O)[C@H](CCC(=O)O)NC(=O)[C@@H]2CCCN2C(=O)[C@H](CC(N)=O)NC(=O)[C@H](CCC(=O)O)NC(C)=O)CCCC=CCCC[C@@](C)(C(=O)N[C@@H](Cc2c[nH]cn2)C(=O)N[C@H](C(=O)N[C@@H](CCC(N)=O)C(=O)N[C@@H](CCCNC(=N)N)C(=O)N[C@H](C(=O)N[C@@H](CCSC)C(N)=O)C(C)C)C(C)C)NC(=O)[C@H](CC(=O)O)NC(=O)[C@H](CC(C)C)NC1=O (Ac-ENPE[S5]ILD[S5]HVQRVM-NH2; staple 5-9) | 48 | –
CC[C@H](C)[C@@H]1NC(=O)[C@H](NC(=O)[C@H](CCC(=O)O)NC(=O)[C@@H]2CCCN2C(=O)[C@H](CC(N)=O)NC(=O)[C@H](CCC(=O)O)NC(C)=O)CNC(=O)CSCCCCCCCSCC(=O)NC[C@@H](C(=O)N[C@@H](Cc2c[nH]cn2)C(=O)N[C@H](C(=O)N[C@@H](CCC(N)=O)C(=O)N[C@@H](CCCNC(=N)N)C(=O)N[C@H](C(=O)N[C@@H](CCSC)C(N)=O)C(C)C)C(C)C)NC(=O)[C@H](CC(=O)O)NC(=O)[C@H](CC(C)C)NC1=O (Ac-ENPE[dDap]ILD[Dap]HVQRVM-NH2; linker 5-9 via X2) | 19 | –
CC[C@H](C)[C@@H]1NC(=O)[C@H](NC(=O)[C@H](CCC(=O)O)NC(=O)[C@@H]2CCCN2C(=O)[C@H](CC(N)=O)NC(=O)[C@H](CCC(=O)O)NC(C)=O)CNC(=O)CSCCCCCCCCSCC(=O)NC[C@@H](C(=O)N[C@@H](Cc2c[nH]cn2)C(=O)N[C@H](C(=O)N[C@@H](CCC(N)=O)C(=O)N[C@@H](CCCNC(=N)N)C(=O)N[C@H](C(=O)N[C@@H](CCSC)C(N)=O)C(C)C)C(C)C)NC(=O)[C@H](CC(=O)O)NC(=O)[C@H](CC(C)C)NC1=O (Ac-ENPE[dDap]ILD[Dap]HVQRVM-NH2; linker 5-9 via X3) | 5 | –
CC[C@H](C)[C@@H]1NC(=O)[C@H](NC(=O)[C@H](CCC(=O)O)NC(=O)[C@@H]2CCCN2C(=O)[C@H](CC(N)=O)NC(=O)[C@H](CCC(=O)O)NC(C)=O)CNC(=O)CSCCCCCCSCC(=O)NC[C@H](C(=O)N[C@@H](Cc2c[nH]cn2)C(=O)N[C@H](C(=O)N[C@@H](CCC(N)=O)C(=O)N[C@@H](CCCNC(=N)N)C(=O)N[C@H](C(=O)N[C@@H](CCSC)C(N)=O)C(C)C)C(C)C)NC(=O)[C@H](CC(=O)O)NC(=O)[C@H](CC(C)C)NC1=O (Ac-ENPE[dDap]ILD[dDap]HVQRVM-NH2; linker 5-9 via X1) | 28 | –
CC[C@H](C)[C@@H]1NC(=O)[C@H](NC(=O)[C@H](CCC(=O)O)NC(=O)[C@@H]2CCCN2C(=O)[C@H](CC(N)=O)NC(=O)[C@H](CCC(=O)O)NC(C)=O)CNC(=O)CSCCCCCCCSCC(=O)NC[C@H](C(=O)N[C@@H](Cc2c[nH]cn2)C(=O)N[C@H](C(=O)N[C@@H](CCC(N)=O)C(=O)N[C@@H](CCCNC(=N)N)C(=O)N[C@H](C(=O)N[C@@H](CCSC)C(N)=O)C(C)C)C(C)C)NC(=O)[C@H](CC(=O)O)NC(=O)[C@H](CC(C)C)NC1=O (Ac-ENPE[dDap]ILD[dDap]HVQRVM-NH2; linker 5-9 via X2) | 31 | –
CC[C@H](C)[C@@H]1NC(=O)[C@H](NC(=O)[C@H](CCC(=O)O)NC(=O)[C@@H]2CCCN2C(=O)[C@H](CC(N)=O)NC(=O)[C@H](CCC(=O)O)NC(C)=O)CNC(=O)CSCCCCCCCCSCC(=O)NC[C@H](C(=O)N[C@@H](Cc2c[nH]cn2)C(=O)N[C@H](C(=O)N[C@@H](CCC(N)=O)C(=O)N[C@@H](CCCNC(=N)N)C(=O)N[C@H](C(=O)N[C@@H](CCSC)C(N)=O)C(C)C)C(C)C)NC(=O)[C@H](CC(=O)O)NC(=O)[C@H](CC(C)C)NC1=O (Ac-ENPE[dDap]ILD[dDap]HVQRVM-NH2; linker 5-9 via X3) | 25 | –
CC[C@H](C)[C@@H]1NC(=O)[C@H](NC(=O)[C@H](CCC(=O)O)NC(=O)[C@@H]2CCCN2C(=O)[C@H](CC(N)=O)NC(=O)[C@H](CCC(=O)O)NC(C)=O)CNC(=O)CSCCCCCSCC(=O)NC[C@H](C(=O)N[C@@H](Cc2c[nH]cn2)C(=O)N[C@H](C(=O)N[C@@H](CCC(N)=O)C(=O)N[C@@H](CCCNC(=N)N)C(=O)N[C@H](C(=O)N[C@@H](CCSC)C(N)=O)C(C)C)C(C)C)NC(=O)[C@H](CC(=O)O)NC(=O)[C@H](CC(C)C)NC1=O (Ac-ENPE[dDap]ILD[dDap]HVQRVM-NH2; linker 5-9 via X4) | 14 | –
CC[C@H](C)[C@@H]1NC(=O)[C@@H](NC(=O)[C@@H](N)CCC(=O)O)CNC(=O)CSCc2cccc(c2)CSCC(=O)NC[C@@H](C(=O)N[C@@H](Cc2c[nH]cn2)C(=O)O)NC(=O)[C@H](CC(=O)O)NC(=O)[C@H](CC(C)C)NC1=O (H-E[Dap]ILD[Dap]H-OH; linker 2-6 via Benzene(1,3-(CH2SCH2CO)2)) | 41 | –
CC[C@H](C)[C@@H]1NC(=O)[C@@H](NC(=O)[C@@H](N)CCC(=O)O)CNC(=O)CSCc2cccc(c2)CSCC(=O)NC[C@H](C(=O)N[C@@H](Cc2c[nH]cn2)C(=O)O)NC(=O)[C@H](CC(=O)O)NC(=O)[C@H](CC(C)C)NC1=O (H-E[Dap]ILD[dDap]H-OH; linker 2-6 via Benzene(1,3-(CH2SCH2CO)2)) | 39 | –
CC[C@H](C)[C@@H]1NC(=O)[C@H](NC(=O)[C@@H](N)CCC(=O)O)CNC(=O)CSCc2cccc(c2)CSCC(=O)NC[C@@H](C(=O)N[C@@H](Cc2c[nH]cn2)C(=O)O)NC(=O)[C@H](CC(=O)O)NC(=O)[C@H](CC(C)C)NC1=O (H-E[dDap]ILD[Dap]H-OH; linker 2-6 via Benzene(1,3-(CH2SCH2CO)2)) | 13 | –
CC[C@H](C)[C@@H]1NC(=O)[C@@H](NC(=O)[C@H](CCC(N)=O)NC(=O)[C@@H]2CCCN2C(=O)[C@H](Cc2c[nH]c3ccccc23)NC(=O)[C@H](CCCNC(=N)N)NC(=O)COCCOCCNC(=S)Nc2ccc3c(c2)C(=O)OC32c3ccc(O)cc3Oc3cc(O)ccc32)CNC(=O)CSCc2cccc(c2)CSCC(=O)NC[C@@H](C(=O)N[C@@H](Cc2c[nH]cn2)C(=O)N[C@H](C(=O)N[C@@H](CCCNC(=N)N)C(=O)N[C@@H](CCCNC(=N)N)C(=O)N[C@H](C(=O)N[C@@H](Cc2c[nH]c3ccccc23)C(=O)N[C@@H](CCCNC(=N)N)C(N)=O)C(C)C)C(C)C)NC(=O)[C@H](CC(=O)O)NC(=O)[C@H](CC(C)C)NC1=O [compound 65] | – | inhibition of β-catenin mediated transcription (TOPFlash) [1]: strong inhibition; effect on growth of HEK293 control cells (HEK293 cells): little effects; EC50 (DLD-1 cells [2]; 5 days, 1000 cells per well, n = 3, read-out: EC50, inhibition of DLD-1 cell growth): 2300 ± 400 nM; effect on viability of DLD-1 cells (DLD-1 cells [3]): did not affect the viability; effects on DLD-1 cells over a time course of 24–96 h (DLD-1 cells [4]): significant effects
CC[C@H](C)[C@@H]1NC(=O)[C@@](C)(NC(=O)[C@H](CCC(N)=O)NC(=O)[C@@H]2CCCN2C(=O)[C@H](Cc2c[nH]c3ccccc23)NC(=O)[C@H](CCCNC(=N)N)NC(=O)COCCOCCNC(=S)Nc2ccc3c(c2)C(=O)OC32c3ccc(O)cc3Oc3cc(O)ccc32)CCC/C=C\CCC[C@@](C)(C(=O)N[C@@H](Cc2c[nH]cn2)C(=O)N[C@H](C(=O)N[C@@H](CCCNC(=N)N)C(=O)N[C@@H](CCCNC(=N)N)C(=O)N[C@H](C(=O)N[C@@H](Cc2c[nH]c3ccccc23)C(=O)N[C@@H](CCCNC(=N)N)C(N)=O)C(C)C)C(C)C)NC(=O)[C@H](CC(=O)O)NC(=O)[C@H](CC(C)C)NC1=O [compound 68, reference compound] | – | concentration at which significant growth inhibition was first displayed (DLD-1 cells [2]; DLD-1, 5 days, highest tested 16 µM): 16 µM
